Series [1] deals with Rab5-Rabex-5-Rabaptin-5C21 (R3) complex (human) (UniProt P20339). The series is described as follows: SAXS; purified R2, R2Δ, R3 and R3Δ complexes at 5 mg/ml in 20 mM Tris–HCl (pH 8.0), 150 mM NaCl, 293 K.
The target in series [2] is Rabex-5-Rabaptin-5C21 (R2) complex (human) (UniProt Q15276). The series is described as above.
Series [3] deals with the molecule itself. The series is described as follows: crystal structure; Rabex-5Δ-Rabaptin-5C21_(2) (R2Δ) complex, 3.10 Å; hanging drop, 16°C, 2.0 M NaH2PO4/K2HPO4 (pH 7.0), 0.05% n-octyl-β-D-galactopyranoside.

“Rab5-Rabex-5-Rabaptin-5C21 (R3) complex (from UniProt P20339 15-184; Q15276 552-642)” showed a stoichiometry N in series [1] of 2.
Take “Rabex-5-Rabaptin-5C21 (R2) complex (from UniProt Q15276 552-642)”: in series [2], the stoichiometry N is 2.

B1: Rabaptin-5 C2-1 domain (residues 552–642) (domain or fragment, human, UniProt Q15276 552-642, looked up)
chain: ETRDQVKKLQLMLRQANDQLEKTMKDKQELEDFIKQSSEDSSHQISALVLRAQASEILLEELQQGLSQAKRDVQEQMAVLMQSREQVSEEL
notes: Rabaptin-5, human, C2-1 domain, residues 552-642; In pET-Duet1 a tag is stated only for the Rabex-5 partner; also called Rabaptin-5C21_(2)
Regarding B1, the binding result in series [3] was “binds”.
